assay: soluble on expression in E. coli; label from the status in PepcDB or PDB records

Soluble on expression in E. coli, soluble:
EVKLVESGGGLVKPGGSLKLSCAASGFTFSRYALSWVRQTADKRLEWVASIVSGGNTYYSGSVKGRFTISRDIARNILYLQMSSLRSEDTAMYYCARAYYGYVGLVHWGQGTLVTVSSAKTTPPSVYPLAPGSAAQTNSMVTLGCLVKGYFPEPVTVTWNSGSLSSGVHTFPAVLQSDLYTLSSSVTVPSSTWPSETVTCNVAHPASSTKVDKKIVPRDCG
MNRNRRDGPQRDVKRERRSRSRSPRRSRIGAAVGSNNGNSSSNNRMVFITNIAYEARWVDLKSLVREKGGEVAFCELLEDRNGKPKGNAVVEFETREGAEKCVENLQKFDWKGRTIIAKEIRDPNAFFRTIKTETGIDYLSRTGGGGAGGRGPPPKDLDRPTRTGTYDLFGLNMEFLRQHNIEPPLCERIFIANLAFNVGTDKLYEVFGMAGKITWMDFRIDKEGKSKGVCVIQYTHPIEAVQAVSMLNGQRLFDRNLVVKMDRFDKELEHKEGGLPRGLESIGMGLGAEGAPLSNVHGMFPGDASVPFTAPAAPFVGGPQVVSAGGFGGVVEQANFARSVMNNGPFGGNAGVGGAGGATFAQPDVFGVNGAGGLAGAATPQATRVIIIRNLPSDYTWQIVRDRVRNFGEVDSVDMMAPGAARIRFATFQDAERARAALYGSTVEGRMISVDYA
GSHMASRTPKKLSNIALTKETRQSSTDYNGFSRLAVDGNKNGDYGHHSVTHTKEDSPSWWEIDLAQTEELEKLIIYNRTDAEIQRLSNFDIIIYDSNDYEVFTQHIDSLESNNLSIDLKGLKGKKVRISLRSAGIPLSLAEVEVYTYK
MAQLFFKYGAMNSGKTIEILKVAHNYEEQDKPVVLMTSGLDTRDGVGKVSSRIGLRRDAIPIFEETNVFDLINDLSYKPFCVLVDECQFLNKHHVIEFARIVDELDIPVMAFGLKNDFRNELFEGSKYLLLYADKLEELKTICWFCHKKATMNLHYIDGNPVYEGDQVQIGGNEAYYPVCRKHYFHPKTVNEEQLEHHHHHH
MSLLIKNGKIFTCEEGKIYEKGDILIKDGKISKIGEDLSQYIGEEEVIDAKGLLIFPGFIEAHCHLGLHEEGNNGAGNGTNEASEPITPQMRAIDGINPFDGGFQSAREAGVTTAVIGPGSANVIGGQFAAVKTSGICIDDMIIKESVAIKVAFGENPKRVYSGKNKMPNTRMAIAALLRETLTEAVNYKNRKIDAEIEDKDFSKNLKYEALLPLINREIPMKAHAHRADDILTAIRIAKEFNLKLTLDHCTEGHLISDYIKRENLDAIVGPTLSFNGKAETLNKTFKTPKALIDKGIKVAITTDHPVVTIDNLPLCAAMAMKEGITFNEVLEAITINPAEIIGIDERVGSLKEGKDGDLVILNGSPFEIATKTIYTIINGEVVYKDEGHHHHHH
MGHHHHHHSHMGKITFYEDRAFQGRSYETTTDCPNLQPYFSRCNSIRVESGCWMLYERPNYQGQQYLLRRGEYPDYQQWMGLSDSIRSCCLIPQTVSHRLRLYEREDHKGLMMELSEDCPSIQDRFHLSEIRSLHVLEGCWVLYELPNYRGRQYLLRPQEYRRCQDWGAMDAKAGSLRRVVDLY
MAIRLPAEWEEQDGVLIAWPHPGSDWYPWLRLVEPVFAQIVREITRFETALVVAADGERTAALLEAVGARMERVAIVELPTNDTWARDFGPVTVERDGRPVLLDFGFNGWGLKFAADRDNLVTRRLRHLGIFGDIPAEMVGLVLEGGSIESDGRGTVLTTAECLLNPNRNPHLSRAEIEEALARYLGTERVLWLENGFLAGDDTDSHVDTLARLAPDDTIVYVRCDDATDEHYAALFMMEKELANLRTREGSPYRLIPLPWPRACFDHEGQRLPATYANFLVINGAVLVPVYDDPADEAALEAIGRAFPGREIVGIDCRPLIIQHGSLHCVTMQLPKGVLPCPNLEHHHHHH
MAASMARLWWPFLARQGLRSRGRCVCSQNPRRSFATEKRVRNLLYEHAREGYSELPYLDMESVCACPEKAARSLELRKGELRPADLPAIISTWQELRQLREQIRSLEAEKEAVAEAVRALLANQDSDQVQKDPQYQGLRARGREIRKQLTPLYPQETQLEEQLYQQALRLPNQTHPDTPVGDESQARVVRVVGEKPAFSFQPRGHLEIGEKLDIIRQKRLSHVSGHRSYYLRGAGALLQHGLVNFTLSKLVSRGFTPMTVPDLLRGAVFEGCGMTPNANPSQIYNIDPSRFEDLNLAGTAEVGLAGYFMDHSVAFRDLPVRMVCASTCYRAETDTGKEPWGLYRVHHFTKVEMFGVTGPGLEQSSQLLDEFLSLQVEILTELGLHFRVLDMPTQELGLPAYRKFDIEAWMPGRGRYGEVTSASNCTDFQSRRLYIMFETETGELQFAHTVNATACAVPRVLIALLESNQQKDGSVLVPAALQPYLGTDRITAPTHVPLQYIGPNQPQKPRLPGQSATR

Soluble on expression in E. coli, not soluble:
MGSDKIHHHHHHMAESSFVYNGVEITWLKHAGFRIKGSRVVYIDPYDIPEELEKADVILVTHDHFDHMDVKSIRKLSKDDTVVVHPSGCIIEGFESCEVGVGTEAEVKGVKIKAVPAYNVDKPFHKENCVGYIVGIDGVKIYHAGDTDRIPEMKEIEVDIALLPVGGTYTMNLQEAIEAAKDIRAKYYIPMHFGAIPQTSADPEEFKRKVKGAVILKPLF
MSNVLIINAMKEFAHSKGALNLTLTNVAADFLRESGHQVKITTVDQGYDIESEIENYLWADTIIYQMPAWWMGEPWILKKYIDEVFTDGHGRLYQSDGRTRSDATKGYGSGGLIQGKTYMLSVTWNAPREAFTDPEQFFHGVGVDGVYLPFHKANQFLGMKPLPTFMCNDVIKQPDIEGDIARYRQHLAENVNS
MNCWMRSPRWPPTTDGSNSSQWVTPCSQMDRSVFSPTPSVPMKLFSTRTLSGTGWAVCKPVGATGVVKGLQRVRLAGLRPAHREDIAIHELVFQRDDDGAIAVCTRRLRLVERLLAKRTDEHRHTGWMGVGHIHRWGAVNECSLAIRMRWLRAPDYVYNTPRCAQLLTSESTKPNGTHGHTMTTFLLATSSVHVTAAAADYLQHRLDSAADHDIVVVAVHDPDAPSRDAGDAVNVARSRLAAFMPATETRDGAPVTEILAAVDEHDPDELLIGPHRGTDDSDGVGSMARDLLTNVDRPVIVLPLP
MGLCVSKPSVAGSPEHYAAHVAEQATPSEEGSGTPAQATSSYSATDPALQGLARRGKKVDLSRSGLPERVALKTKLLANSLSDAKDAGVRSSIVKYGERTLKMLAANKQPDEALLKLDIKNLPALASVYNRRYPGLNIQHFDSPIDFLQSLSEQTTSVVSQRAVLRLERDGEHHVAADVRRRPNGEASVIVLEPARLLTFVTGHTQLRRQALSQLGENAKFAFIQVGAQKSAADCLMFDLHFALHAHQHSSLFDQWHDNMVNHGTIDPYGQGAASPDALLEDAGVELMLGEQMLPAIFYKHTHSSGVVEEVDRSQPGSAYTDVSTSGRQQQHESLEQRVQAFRVDRGYSASIETSRATKIRSALETAISDRQS
MRLHIGGREKHPDWKIFDALERPEVNFVGNAADLSQFADDSIEAIYASHVLEHFHHSLGNELVSVLLEWRRVLLPNGKLYISVPDLQTLSWLFLSPMAGFQHRLQIMRMMFGGQVDQYDVHKVGFDCEILFTYLQAAKFSDYERVENFELFQDCSNLVFLGYPISLNVVAVKLEHHHHHH
MADDPHVLAFLARVHQGRRDRVEDHLHEHFIRERNLHQRPQFPPLQLVPVQAEHEYEHPFPLVDVFKFSLQGDSVKTASSSWQGLQWKVKCSIYNLPGELLATRVSVDFFNLMDRVFKATVKYEMNEKFAAANEFAEVVIDSNHSTIVFPETGAFAPGRLVDGMLPTEIAVKIKLEHAEIVDQFSYNNQSWVMGTRWVRYGDECSVRMNFDVLKNLNPCHDKFFDDLREQVLSPKEARAFFDFASAIFNRSFMGLDLFHESVRNGLKFGFTTNWDSLNTVDSEFDFNSRTAFPGYQNVLYEQPSELTSISNRETAGMCQIFKLNLDPSDVTTRFQVASMNNVKSHTSQFTFYLENSPNGYLLIAGGCFQMESRQLVNLKLTLFDSGVSCRNIQTFRILHKEQSTIKVVIALLDDDKMEKMSRGKLLLNFQMHMNGTISNVVRNFEDQTKRIGDFAMPGLVTGYINCRDKKRIGVCKEHLANNSEHLNMLFFNTVFEDCGKNEITVNEDSDIVLDALDIIYHRSLAIFPAQINRVLDLAGYWLSATMHRFMEIAILHSTHISDSAKLELAAEHHFDIIKYVARHPRYASTYHLSLTDEEIMQVRIPADNEVDGGTGGRPRRVEDLMDLEEQQE
MDTEKLRRQLIDRITDNYSEYRASLLLKDRQELIDGAGRIADTATVFQHLADRSYKPEELEYLLKFQNPLEVVTEHWADYELMPDVLDALIADTVDRQDDLTLFPLATDAPAQKPESLRKFLNVDLETVLPQIMKQKTAFYQTDLNYALDAMREGATSGDPAKQNFVLIFRQSGVECLNERDMFIGGTRSFNTLQFYHTQTREPVLTYSVELTGDGKDGLRGNLYQQDNHRLAEYAGRTASPYTDVTVTFTGGKEVRLPEKEFYYEKAASLKYLHGSIKEVRNEAEDETVVQGAVKREHDRRREMPRGYFAVHLQALDEQRIQAEADRLSSALTDLKQPNSPDKEKFMVEISVYFLPLASQHDMNRLFEKVRDQVGQTVYITPPDDTHKRYFVMRREERAQEQPERKPSIKAQLSAKPVPGDKPATKTKDREVR
MGSDKIHHHHHHMGQRIIIDPVTRIEGHAKISIHLDDHGDVAETRFHVTEFRGFERFCIGRPFWEMPGITARICGICPVSHLLASARAGDGILAVLIPPAAEKLRRLMNLAQIIQSHALSFFHLSGPDLMLGFDSDPAQRNIFGLIAADPDVARNGIRLRQFGQEVIEMLGGRKIHPAWAVPGGVRSGLSASSRDHIRAKLPEMLTIACDALGRLKQLSAKYQREIETFGVFPSLYLGMVGPGGRWMHYGGKLRVIDHTGNILIDELDPIDYRDVIGEAVEPWSYLKFPYIRALGYPQGMYRVGPLARINICTTMGAERADAELRELRQAVGPVIHGSFYYHHARLIEIIAALERMEVLVEDDDLLSTELRADAGVNRHEAVGVSEAPRGTLFHHYRVDEKGLITDVNLIIATGQNNLAINRTVGQIAQSYIRHGQFDEGILNRIEAGVRAYDPCLSCSTHAVGQMAMEVDLYNAQGELINRLSR
MRHRVKKKHFDRTKEQRLALYRSLARALIFDERIETTVERAKALRSFIEPLVELAKEGTLHARRQALSRLPDKPAIKKLFEDIAPRFEGRNGGYVRIIKLPYRRRGDGAEMAIIEWVELEHHHHHH
MKWDEYVDIFDTDVVSKIIILRNLPINEGWIDINELAEELQLNKKSVKKYVELLKDDITYYVVDNDASLAFEKGHGYRLNLASSQAFQKLYTAIFRDSLTYQVMEDLFWGRFNGIVPATAKYHTSDATIRRLLKGFTEILAPLGLVINKSTWKIEGNEAYLRHFAYTIFMDLIRDTWPFDYIQETEVAQTVQKMMAFFNVEVAETVTRRVKYMVAISKVRSAQGAEYRPSAEQETYLEGNKHYQAFIEEMTATTLFLNKNDLTFVYFFLLANDQFYQDEATAQAILAHFDETEAPVYMLTHLVQHFLLEEIHMTPQLEKIRPQIFYYLFATHLFAELYYVQNVKMYNVFWNKIKEKYPVLLAELIQGLNQLYEQTGNELFTNKEFLALRYSSVLALSNDLIHREQKIVLGLKSGLPVLEEERVKLSIENNFRRFYALEVLRYSEASKEEWQNIDLLLVTSLADVETGHPEIFLFSSELTFEQYNRLNQKIVKINEKRTTSL
MSTRWYPIYQRGNPQLRVFLPNFWMKLIRPTEEQPPNVVTFSVSMEMTKYDVRNYLEKIYKLPVVDVRTRIAMGETKKDQTYGYITKKDDVKLAYVTLPREESFVFPDFFSEKAEKQAKEEKSLDESKAGFRRFLDRNKKRPGTPGWFSI

— the DeepSol protein solubility set
